Numbered stars: 1 amine (or outer) side, 2 acyl side, 3 side chain; on linkers, the order of the positions; unused ones are H or OH. * marks the point of attachment. C20 diacid = O=C(O)CCCCCCCCCCCCCCCCCCC(=O)*; C18 diacid = O=C(O)CCCCCCCCCCCCCCCCC(=O)*; γGlu = O=C(O)[C@H](CCC(=O)[*:2])N[*:1]
T1: human amylin 3(a) receptor (human calcitonin receptor co-expressed with RAMP-3) (human, UniProt P30988 25-474; O60896 24-148, limits assumed)
T1 sequence (looked up) 1: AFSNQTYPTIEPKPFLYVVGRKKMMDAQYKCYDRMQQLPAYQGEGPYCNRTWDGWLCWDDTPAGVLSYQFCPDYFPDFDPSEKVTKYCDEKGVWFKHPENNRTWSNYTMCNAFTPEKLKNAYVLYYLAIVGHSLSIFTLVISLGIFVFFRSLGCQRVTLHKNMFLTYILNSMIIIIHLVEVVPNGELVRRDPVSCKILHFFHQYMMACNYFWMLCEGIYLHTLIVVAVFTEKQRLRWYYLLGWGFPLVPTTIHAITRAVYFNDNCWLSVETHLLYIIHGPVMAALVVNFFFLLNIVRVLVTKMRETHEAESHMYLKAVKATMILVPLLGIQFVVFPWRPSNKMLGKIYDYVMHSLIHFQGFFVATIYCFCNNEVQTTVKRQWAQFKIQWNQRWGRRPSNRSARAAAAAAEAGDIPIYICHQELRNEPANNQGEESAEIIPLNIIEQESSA
T1 sequence (looked up) 2: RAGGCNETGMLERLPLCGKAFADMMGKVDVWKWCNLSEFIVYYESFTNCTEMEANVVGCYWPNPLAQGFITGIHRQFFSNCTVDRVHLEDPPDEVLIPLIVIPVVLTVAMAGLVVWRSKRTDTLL

T2: human calcitonin receptor (human, UniProt P30988 25-474)
T2 sequence (looked up): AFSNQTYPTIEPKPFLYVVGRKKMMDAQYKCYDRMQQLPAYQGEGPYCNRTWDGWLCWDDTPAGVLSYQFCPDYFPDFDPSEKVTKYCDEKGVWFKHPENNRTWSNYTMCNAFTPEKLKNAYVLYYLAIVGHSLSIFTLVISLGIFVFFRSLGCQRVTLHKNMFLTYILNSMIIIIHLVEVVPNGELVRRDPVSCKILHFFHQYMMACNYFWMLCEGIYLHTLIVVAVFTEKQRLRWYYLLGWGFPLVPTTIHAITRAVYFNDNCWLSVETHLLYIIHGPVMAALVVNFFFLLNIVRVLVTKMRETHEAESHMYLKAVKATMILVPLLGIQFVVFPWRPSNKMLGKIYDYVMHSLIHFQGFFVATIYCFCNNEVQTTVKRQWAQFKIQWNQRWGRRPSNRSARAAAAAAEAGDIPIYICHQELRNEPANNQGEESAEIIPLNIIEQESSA


Tests used:
[1] = target: T1, human amylin 3(a) receptor (human …); test: cell-based or functional assay
[2] = target: T2, human calcitonin receptor; test: cell-based or functional assay

Row | Binder | hAmylin-R funct. EC50 (pM) [1] [pM] | hCTR funct. EC50 (pM) [2] [pM]
1 | {C20 diacid-γGlu}-ASELSTAVLGRLSQELHELQTYPRTETGSGTY-NH2 (SMILES CC(C)C[C@H](NC(=O)[C@H](CCCNC(=N)N)NC(=O)CNC(=O)[C@H](CC(C)C)NC(=O)[C@@H](NC(=O)[C@H](C)NC(=O)[C@@H](NC(=O)[C@H](CO)NC(=O)[C@H](CC(C)C)NC(=O)[C@H](CCC(=O)O)NC(=O)[C@H](CO)NC(=O)[C@H](C)NC(=O)CC[C@H](NC(=O)CCCCCCCCCCCCCCCCCCC(=O)O)C(=O)O)[C@@H](C)O)C(C)C)C(=O)N[C@@H](CO)C(=O)N[C@@H](CCC(N)=O)C(=O)N[C@@H](CCC(=O)O)C(=O)N[C@@H](CC(C)C)C(=O)N[C@@H](Cc1c[nH]cn1)C(=O)N[C@@H](CCC(=O)O)C(=O)N[C@@H](CC(C)C)C(=O)N[C@@H](CCC(N)=O)C(=O)N[C@H](C(=O)N[C@@H](Cc1ccc(O)cc1)C(=O)N1CCC[C@H]1C(=O)N[C@@H](CCCNC(=N)N)C(=O)N[C@H](C(=O)N[C@@H](CCC(=O)O)C(=O)N[C@H](C(=O)NCC(=O)N[C@@H](CO)C(=O)NCC(=O)N[C@H](C(=O)N[C@@H](Cc1ccc(O)cc1)C(N)=O)[C@@H](C)O)[C@@H](C)O)[C@@H](C)O)[C@@H](C)O) [[N-terminal(C20 diacid-gGlu), des1, 9V, 15Q, 21Q, 23Y, 30S, 31G, 32T, 33Y]mimylin] | 76 | 60
2 | {C20 diacid-γGlu}-ASGLSTAALGRLSTELHELETYPRTETGSGTY-NH2 (SMILES CC(C)C[C@H](NC(=O)CNC(=O)[C@H](CO)NC(=O)[C@H](C)NC(=O)CC[C@H](NC(=O)CCCCCCCCCCCCCCCCCCC(=O)O)C(=O)O)C(=O)N[C@@H](CO)C(=O)N[C@H](C(=O)N[C@@H](C)C(=O)N[C@@H](C)C(=O)N[C@@H](CC(C)C)C(=O)NCC(=O)N[C@@H](CCCNC(=N)N)C(=O)N[C@@H](CC(C)C)C(=O)N[C@@H](CO)C(=O)N[C@H](C(=O)N[C@@H](CCC(=O)O)C(=O)N[C@@H](CC(C)C)C(=O)N[C@@H](Cc1c[nH]cn1)C(=O)N[C@@H](CCC(=O)O)C(=O)N[C@@H](CC(C)C)C(=O)N[C@@H](CCC(=O)O)C(=O)N[C@H](C(=O)N[C@@H](Cc1ccc(O)cc1)C(=O)N1CCC[C@H]1C(=O)N[C@@H](CCCNC(=N)N)C(=O)N[C@H](C(=O)N[C@@H](CCC(=O)O)C(=O)N[C@H](C(=O)NCC(=O)N[C@@H](CO)C(=O)NCC(=O)N[C@H](C(=O)N[C@@H](Cc1ccc(O)cc1)C(N)=O)[C@@H](C)O)[C@@H](C)O)[C@@H](C)O)[C@@H](C)O)[C@@H](C)O)[C@@H](C)O) [[N-terminal(C20 diacid-gGlu), des1, 4G, 15T, 21E, 23Y, 30S, 31G, 32T, 33Y]mimylin] | 54 | 18
3 | {C20 diacid-γGlu}-ASQLSTAVLGRLSQELHELQTYPRTETGSQTY-NH2 (SMILES CC(C)C[C@H](NC(=O)[C@H](CCCNC(=N)N)NC(=O)CNC(=O)[C@H](CC(C)C)NC(=O)[C@@H](NC(=O)[C@H](C)NC(=O)[C@@H](NC(=O)[C@H](CO)NC(=O)[C@H](CC(C)C)NC(=O)[C@H](CCC(N)=O)NC(=O)[C@H](CO)NC(=O)[C@H](C)NC(=O)CC[C@H](NC(=O)CCCCCCCCCCCCCCCCCCC(=O)O)C(=O)O)[C@@H](C)O)C(C)C)C(=O)N[C@@H](CO)C(=O)N[C@@H](CCC(N)=O)C(=O)N[C@@H](CCC(=O)O)C(=O)N[C@@H](CC(C)C)C(=O)N[C@@H](Cc1c[nH]cn1)C(=O)N[C@@H](CCC(=O)O)C(=O)N[C@@H](CC(C)C)C(=O)N[C@@H](CCC(N)=O)C(=O)N[C@H](C(=O)N[C@@H](Cc1ccc(O)cc1)C(=O)N1CCC[C@H]1C(=O)N[C@@H](CCCNC(=N)N)C(=O)N[C@H](C(=O)N[C@@H](CCC(=O)O)C(=O)N[C@H](C(=O)NCC(=O)N[C@@H](CO)C(=O)N[C@@H](CCC(N)=O)C(=O)N[C@H](C(=O)N[C@@H](Cc1ccc(O)cc1)C(N)=O)[C@@H](C)O)[C@@H](C)O)[C@@H](C)O)[C@@H](C)O) [[N-terminal(C20 diacid-gGlu), des1, 4Q, 9V, 15Q, 21Q, 23Y, 30S, 31Q, 32T, 33Y]mimylin] | 62 | 63
4 | {C20 diacid-γGlu}-ASGLSTAALGRLSEELHELQTYPRTETGSGTY-NH2 (SMILES CC(C)C[C@H](NC(=O)CNC(=O)[C@H](CO)NC(=O)[C@H](C)NC(=O)CC[C@H](NC(=O)CCCCCCCCCCCCCCCCCCC(=O)O)C(=O)O)C(=O)N[C@@H](CO)C(=O)N[C@H](C(=O)N[C@@H](C)C(=O)N[C@@H](C)C(=O)N[C@@H](CC(C)C)C(=O)NCC(=O)N[C@@H](CCCNC(=N)N)C(=O)N[C@@H](CC(C)C)C(=O)N[C@@H](CO)C(=O)N[C@@H](CCC(=O)O)C(=O)N[C@@H](CCC(=O)O)C(=O)N[C@@H](CC(C)C)C(=O)N[C@@H](Cc1c[nH]cn1)C(=O)N[C@@H](CCC(=O)O)C(=O)N[C@@H](CC(C)C)C(=O)N[C@@H](CCC(N)=O)C(=O)N[C@H](C(=O)N[C@@H](Cc1ccc(O)cc1)C(=O)N1CCC[C@H]1C(=O)N[C@@H](CCCNC(=N)N)C(=O)N[C@H](C(=O)N[C@@H](CCC(=O)O)C(=O)N[C@H](C(=O)NCC(=O)N[C@@H](CO)C(=O)NCC(=O)N[C@H](C(=O)N[C@@H](Cc1ccc(O)cc1)C(N)=O)[C@@H](C)O)[C@@H](C)O)[C@@H](C)O)[C@@H](C)O)[C@@H](C)O) [[N-terminal(C20 diacid-gGlu), des1, 4G, 15E, 21Q, 23Y, 30S, 31G, 32T, 33Y]mimylin] | 36 | 21
5 | {C18 diacid}-EASELSTAALGRLSAEIHELATLPRTETGPESP-NH2 (SMILES CC[C@H](C)[C@H](NC(=O)[C@H](CCC(=O)O)NC(=O)[C@H](C)NC(=O)[C@H](CO)NC(=O)[C@H](CC(C)C)NC(=O)[C@H](CCCNC(=N)N)NC(=O)CNC(=O)[C@H](CC(C)C)NC(=O)[C@H](C)NC(=O)[C@H](C)NC(=O)[C@@H](NC(=O)[C@H](CO)NC(=O)[C@H](CC(C)C)NC(=O)[C@H](CCC(=O)O)NC(=O)[C@H](CO)NC(=O)[C@H](C)NC(=O)[C@H](CCC(=O)O)NC(=O)CCCCCCCCCCCCCCCCC(=O)O)[C@@H](C)O)C(=O)N[C@@H](Cc1c[nH]cn1)C(=O)N[C@@H](CCC(=O)O)C(=O)N[C@@H](CC(C)C)C(=O)N[C@@H](C)C(=O)N[C@H](C(=O)N[C@@H](CC(C)C)C(=O)N1CCC[C@H]1C(=O)N[C@@H](CCCNC(=N)N)C(=O)N[C@H](C(=O)N[C@@H](CCC(=O)O)C(=O)N[C@H](C(=O)NCC(=O)N1CCC[C@H]1C(=O)N[C@@H](CCC(=O)O)C(=O)N[C@@H](CO)C(=O)N1CCC[C@H]1C(N)=O)[C@@H](C)O)[C@@H](C)O)[C@@H](C)O) [[N-terminal(C18 diacid), 17I]mimylin] | 7 | 5
6 | {C20 diacid-γGlu}-EASQLSTAVLGRLSQELHELQTYPRTGTGSGTY-NH2 (SMILES CC(C)C[C@H](NC(=O)[C@H](CCCNC(=N)N)NC(=O)CNC(=O)[C@H](CC(C)C)NC(=O)[C@@H](NC(=O)[C@H](C)NC(=O)[C@@H](NC(=O)[C@H](CO)NC(=O)[C@H](CC(C)C)NC(=O)[C@H](CCC(N)=O)NC(=O)[C@H](CO)NC(=O)[C@H](C)NC(=O)[C@H](CCC(=O)O)NC(=O)CC[C@H](NC(=O)CCCCCCCCCCCCCCCCCCC(=O)O)C(=O)O)[C@@H](C)O)C(C)C)C(=O)N[C@@H](CO)C(=O)N[C@@H](CCC(N)=O)C(=O)N[C@@H](CCC(=O)O)C(=O)N[C@@H](CC(C)C)C(=O)N[C@@H](Cc1c[nH]cn1)C(=O)N[C@@H](CCC(=O)O)C(=O)N[C@@H](CC(C)C)C(=O)N[C@@H](CCC(N)=O)C(=O)N[C@H](C(=O)N[C@@H](Cc1ccc(O)cc1)C(=O)N1CCC[C@H]1C(=O)N[C@@H](CCCNC(=N)N)C(=O)N[C@H](C(=O)NCC(=O)N[C@H](C(=O)NCC(=O)N[C@@H](CO)C(=O)NCC(=O)N[C@H](C(=O)N[C@@H](Cc1ccc(O)cc1)C(N)=O)[C@@H](C)O)[C@@H](C)O)[C@@H](C)O)[C@@H](C)O) [[N-terminal(C20 diacid-gGlu), 4Q, 9V, 15Q, 21Q, 23Y, 27G, 30S, 31G, 32T, 33Y]mimylin] | 66 | 56
7 | {C20 diacid-γGlu}-ASGLSTAALGRLSQELHELQTYPHTETGSGTY-NH2 (SMILES CC(C)C[C@H](NC(=O)CNC(=O)[C@H](CO)NC(=O)[C@H](C)NC(=O)CC[C@H](NC(=O)CCCCCCCCCCCCCCCCCCC(=O)O)C(=O)O)C(=O)N[C@@H](CO)C(=O)N[C@H](C(=O)N[C@@H](C)C(=O)N[C@@H](C)C(=O)N[C@@H](CC(C)C)C(=O)NCC(=O)N[C@@H](CCCNC(=N)N)C(=O)N[C@@H](CC(C)C)C(=O)N[C@@H](CO)C(=O)N[C@@H](CCC(N)=O)C(=O)N[C@@H](CCC(=O)O)C(=O)N[C@@H](CC(C)C)C(=O)N[C@@H](Cc1c[nH]cn1)C(=O)N[C@@H](CCC(=O)O)C(=O)N[C@@H](CC(C)C)C(=O)N[C@@H](CCC(N)=O)C(=O)N[C@H](C(=O)N[C@@H](Cc1ccc(O)cc1)C(=O)N1CCC[C@H]1C(=O)N[C@@H](Cc1c[nH]cn1)C(=O)N[C@H](C(=O)N[C@@H](CCC(=O)O)C(=O)N[C@H](C(=O)NCC(=O)N[C@@H](CO)C(=O)NCC(=O)N[C@H](C(=O)N[C@@H](Cc1ccc(O)cc1)C(N)=O)[C@@H](C)O)[C@@H](C)O)[C@@H](C)O)[C@@H](C)O)[C@@H](C)O) [[N-terminal(C20 diacid-gGlu), des1, 4G, 15Q, 21Q, 23Y, 25H, 30S, 31G, 32T, 33Y]mimylin] | 41 | 27

Reference: US20160272683A1 (Novo Nordisk, published 2016)
